Patent US20220073599A1

Assays:
Pig VEGF-A-121 (pig) = Pig VEGF-A-121 (pig) (UniProt P49151); assay: SPR crossreactivity set-up, VEGF-A121-His captured by anti-His antibody, Fab injected, single cycle kinetics
human VEGFA-165 (human) = human VEGFA-165 (human) (UniProt P15692); assay: KinExA, VEGFA-165; set-up for VEGFA-165 not described
[1] = molecular target: human VEGFA-121-His (human) (UniProt P15692); assay: KinExA equilibrium titration in solution, VEGFA-121
human VEGFA-121-His (human), sequence (P15692 other isoform, or with tags, fused parts or gaps): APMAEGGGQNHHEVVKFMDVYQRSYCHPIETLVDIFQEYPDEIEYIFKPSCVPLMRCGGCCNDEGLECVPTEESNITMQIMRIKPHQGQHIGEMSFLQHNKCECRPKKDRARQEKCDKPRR

Pig VEGF-A-121 (pig), sequence (P49151 other isoform, or with tags, fused parts or gaps limits assumed): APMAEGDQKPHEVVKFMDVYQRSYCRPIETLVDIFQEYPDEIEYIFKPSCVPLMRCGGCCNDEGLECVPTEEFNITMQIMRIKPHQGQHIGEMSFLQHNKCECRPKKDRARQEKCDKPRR
human VEGFA-165 (human), sequence (P15692 other isoform, or with tags, fused parts or gaps limits assumed): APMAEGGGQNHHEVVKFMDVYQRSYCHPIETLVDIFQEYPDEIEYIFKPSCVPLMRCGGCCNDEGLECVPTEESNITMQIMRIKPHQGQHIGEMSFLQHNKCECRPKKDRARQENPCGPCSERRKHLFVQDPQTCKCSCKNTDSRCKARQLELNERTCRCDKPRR

Row | Binder | Kd (Pig VEGF-A-121 (pig)) [pM] | koff (Pig VEGF-A-121 (pig)) [s⁻¹] | kon (Pig VEGF-A-121 (pig)) [M⁻¹ s⁻¹] | t1/2 (Pig VEGF-A-121 (pig)) [min] | Kd (human VEGFA-165 (human)) [pM] | Kd [1] [pM]
1 | bispecific anti-VEGF-A/anti-ANG2 Fab fragment P1AD9820 (Fab, V domains shown) VH: SEHLVESGGGLVKPGGSLRLSCATADFFEYDDMSWVRQAPGKGLEWVGSISPKGDHKYLNTKFIGRFTISRDDSKNTLYLQMNSLRAEDTAVYYCARDVGFFDWWGQGTLVTVSS VL: AIYMHQEPSSLSASVGDRVTITCHGSYWLNSEVAWYQQKPGKAPKLLIFDGDFKVYEVPSRFSGSGSHEDYTLTISSLQPEDFATYYCQQYRYHPYTFGHGTKVEIKR | 2790 | 0.000499 | 179000 | 23 |  | 
2 | Brolucizumab-analogue (scFv, INN chains, looked up, V domains shown, scFv) VH: EVQLVESGGGLVQPGGSLRLSCTASGFSLTDYYYMTWVRQAPGKGLEWVGFIDPDDDPYYATWAKGRFTISRDNSKNTLYLQMNSLRAEDTAVYYCAGGDHNSGWGLDIWGQGTLVTVSS VL: EIVMTQSPSTLSASVGDRVIITCQASEIIHSWLAWYQQKPGKAPKLLIYLASTLASGVPSRFSGSGSGAEFTLTISSLQPDDFATYYCQNVYLASTNGANFGQGTKLTVL |  |  |  |  | 1 | 2
